Test results taken from publication doi:10.1101/2024.12.10.627806.
Blank lines part the entries; values can stand above or below the substance they belong to.

How the values were obtained:
[1] = target: head-tail joining protein (80α gp50) (Staphylococcus aureus bacteriophage 80α); experiment: cryo-EM structure; focused reconstruction of the neck of purified SaPI1 virions with C6 symmetry, 3.1 Å; AlphaFold2 models fitted and refined in ISOLDE; virions in 20 mM Tris-HCl pH 7.8, 50 mM NaCl, 4 mM CaCl2, 1 mM MgSO4, treated with Benzonase
[2] = target: head-to-tail connector protein (80α gp49) (Staphylococcus aureus bacteriophage 80α); experiment: as above
[3] = target: major tail protein (80α gp53) (Staphylococcus aureus bacteriophage 80α); experiment: as above
[4] = target: portal protein (80α gene product 42) (Staphylococcus aureus bacteriophage 80α); experiment: as above
[5] = target: tail terminator protein (80α gp52) (Staphylococcus aureus bacteriophage 80α); experiment: as above
[6] = target: tape measure protein (80α gp56) (Staphylococcus aureus bacteriophage 80α); experiment: cryo-EM structure; asymmetric (C1) reconstruction of the neck of purified SaPI1 virions after symmetry expansion and masked classification on the tail interior, 3.4 Å (3.54 Å in the methods); AlphaFold2/AlphaFold3 models fitted

- stoichiometry N [1]: 6
Substance: head-tail joining protein (80α gp50) (natural protein)

- stoichiometry N [2]: 12
Substance: head-to-tail connector protein (80α gp49) (natural protein)

- stoichiometry N [3]: 6
Substance: major tail protein (80α gp53) (natural protein)

- stoichiometry N [4]: 12
Substance: portal protein (80α gene product 42) (natural protein)

- stoichiometry N [5]: 6
Substance: tail terminator protein (80α gp52) (natural protein)

- stoichiometry N [6]: 3
Substance: tape measure protein (80α gp56) (natural protein)
